{"source": "patent US20200087373A1", "about": "(UNIVERSITY OF COPENHAGEN, published 2020)", "binders": {"B1": {"name": "AT170 [hGIP(5-30)NH2[S8K]-C16diacid/8] (peptide)", "peptide": "TFIK(C16 diacid)DYSIAMDKIHQQDFVNWLLAQK-NH2", "modifications": "N-terminus assumed", "SMILES": "CC[C@H](C)[C@H](NC(=O)[C@H](CO)NC(=O)[C@H](Cc1ccc(O)cc1)NC(=O)[C@H](CC(=O)O)NC(=O)[C@H](CCCCNC(=O)CCCCCCCCCCCCCCC(=O)O)NC(=O)[C@@H](NC(=O)[C@H](Cc1ccccc1)NC(=O)[C@@H](N)[C@@H](C)O)[C@@H](C)CC)C(=O)N[C@@H](C)C(=O)N[C@@H](CCSC)C(=O)N[C@@H](CC(=O)O)C(=O)N[C@@H](CCCCN)C(=O)N[C@H](C(=O)N[C@@H](Cc1c[nH]cn1)C(=O)N[C@@H](CCC(N)=O)C(=O)N[C@@H](CCC(N)=O)C(=O)N[C@@H](CC(=O)O)C(=O)N[C@@H](Cc1ccccc1)C(=O)N[C@H](C(=O)N[C@@H](CC(N)=O)C(=O)N[C@@H](Cc1c[nH]c2ccccc12)C(=O)N[C@@H](CC(C)C)C(=O)N[C@@H](CC(C)C)C(=O)N[C@@H](C)C(=O)N[C@@H](CCC(N)=O)C(=O)N[C@@H](CCCCN)C(N)=O)C(C)C)[C@@H](C)CC"}, "B2": {"name": "AT169 [hGIP(5-30)NH2[I7K]-C16diacid/7] (peptide)", "peptide": "TFK(C16 diacid)SDYSIAMDKIHQQDFVNWLLAQK-NH2", "modifications": "N-terminus assumed", "SMILES": "CC[C@H](C)[C@H](NC(=O)[C@H](CO)NC(=O)[C@H](Cc1ccc(O)cc1)NC(=O)[C@H](CC(=O)O)NC(=O)[C@H](CO)NC(=O)[C@H](CCCCNC(=O)CCCCCCCCCCCCCCC(=O)O)NC(=O)[C@H](Cc1ccccc1)NC(=O)[C@@H](N)[C@@H](C)O)C(=O)N[C@@H](C)C(=O)N[C@@H](CCSC)C(=O)N[C@@H](CC(=O)O)C(=O)N[C@@H](CCCCN)C(=O)N[C@H](C(=O)N[C@@H](Cc1c[nH]cn1)C(=O)N[C@@H](CCC(N)=O)C(=O)N[C@@H](CCC(N)=O)C(=O)N[C@@H](CC(=O)O)C(=O)N[C@@H](Cc1ccccc1)C(=O)N[C@H](C(=O)N[C@@H](CC(N)=O)C(=O)N[C@@H](Cc1c[nH]c2ccccc12)C(=O)N[C@@H](CC(C)C)C(=O)N[C@@H](CC(C)C)C(=O)N[C@@H](C)C(=O)N[C@@H](CCC(N)=O)C(=O)N[C@@H](CCCCN)C(N)=O)C(C)C)[C@@H](C)CC"}, "B3": {"name": "AT121 [hGIP(5-30)NH2-C14/5] (peptide)", "peptide": "Myristoyl-TFISDYSIAMDKIHQQDFVNWLLAQK-NH2", "SMILES": "CCCCCCCCCCCCCC(=O)N[C@H](C(=O)N[C@@H](Cc1ccccc1)C(=O)N[C@H](C(=O)N[C@@H](CO)C(=O)N[C@@H](CC(=O)O)C(=O)N[C@@H](Cc1ccc(O)cc1)C(=O)N[C@@H](CO)C(=O)N[C@H](C(=O)N[C@@H](C)C(=O)N[C@@H](CCSC)C(=O)N[C@@H](CC(=O)O)C(=O)N[C@@H](CCCCN)C(=O)N[C@H](C(=O)N[C@@H](Cc1c[nH]cn1)C(=O)N[C@@H](CCC(N)=O)C(=O)N[C@@H](CCC(N)=O)C(=O)N[C@@H](CC(=O)O)C(=O)N[C@@H](Cc1ccccc1)C(=O)N[C@H](C(=O)N[C@@H](CC(N)=O)C(=O)N[C@@H](Cc1c[nH]c2ccccc12)C(=O)N[C@@H](CC(C)C)C(=O)N[C@@H](CC(C)C)C(=O)N[C@@H](C)C(=O)N[C@@H](CCC(N)=O)C(=O)N[C@@H](CCCCN)C(N)=O)C(C)C)[C@@H](C)CC)[C@@H](C)CC)[C@@H](C)CC)[C@@H](C)O"}, "B4": {"name": "AT124 [hGIP(5-30)NH2-C16/5] (peptide)", "peptide": "Palmitoyl-TFISDYSIAMDKIHQQDFVNWLLAQK-NH2", "SMILES": "CCCCCCCCCCCCCCCC(=O)N[C@H](C(=O)N[C@@H](Cc1ccccc1)C(=O)N[C@H](C(=O)N[C@@H](CO)C(=O)N[C@@H](CC(=O)O)C(=O)N[C@@H](Cc1ccc(O)cc1)C(=O)N[C@@H](CO)C(=O)N[C@H](C(=O)N[C@@H](C)C(=O)N[C@@H](CCSC)C(=O)N[C@@H](CC(=O)O)C(=O)N[C@@H](CCCCN)C(=O)N[C@H](C(=O)N[C@@H](Cc1c[nH]cn1)C(=O)N[C@@H](CCC(N)=O)C(=O)N[C@@H](CCC(N)=O)C(=O)N[C@@H](CC(=O)O)C(=O)N[C@@H](Cc1ccccc1)C(=O)N[C@H](C(=O)N[C@@H](CC(N)=O)C(=O)N[C@@H](Cc1c[nH]c2ccccc12)C(=O)N[C@@H](CC(C)C)C(=O)N[C@@H](CC(C)C)C(=O)N[C@@H](C)C(=O)N[C@@H](CCC(N)=O)C(=O)N[C@@H](CCCCN)C(N)=O)C(C)C)[C@@H](C)CC)[C@@H](C)CC)[C@@H](C)CC)[C@@H](C)O"}, "B5": {"name": "AT122 [hGIP(5-30)NH2-C14/16] (peptide)", "peptide": "TFISDYSIAMDK(Myristoyl)IHQQDFVNWLLAQK-NH2", "modifications": "N-terminus assumed", "SMILES": "CCCCCCCCCCCCCC(=O)NCCCC[C@H](NC(=O)[C@H](CC(=O)O)NC(=O)[C@H](CCSC)NC(=O)[C@H](C)NC(=O)[C@@H](NC(=O)[C@H](CO)NC(=O)[C@H](Cc1ccc(O)cc1)NC(=O)[C@H](CC(=O)O)NC(=O)[C@H](CO)NC(=O)[C@@H](NC(=O)[C@H](Cc1ccccc1)NC(=O)[C@@H](N)[C@@H](C)O)[C@@H](C)CC)[C@@H](C)CC)C(=O)N[C@H](C(=O)N[C@@H](Cc1c[nH]cn1)C(=O)N[C@@H](CCC(N)=O)C(=O)N[C@@H](CCC(N)=O)C(=O)N[C@@H](CC(=O)O)C(=O)N[C@@H](Cc1ccccc1)C(=O)N[C@H](C(=O)N[C@@H](CC(N)=O)C(=O)N[C@@H](Cc1c[nH]c2ccccc12)C(=O)N[C@@H](CC(C)C)C(=O)N[C@@H](CC(C)C)C(=O)N[C@@H](C)C(=O)N[C@@H](CCC(N)=O)C(=O)N[C@@H](CCCCN)C(N)=O)C(C)C)[C@@H](C)CC"}, "B6": {"name": "AT119 [hGIP(5-30)NH2-C12/16] (peptide)", "peptide": "TFISDYSIAMDK(Lauroyl)IHQQDFVNWLLAQK-NH2", "modifications": "N-terminus assumed", "SMILES": "CCCCCCCCCCCC(=O)NCCCC[C@H](NC(=O)[C@H](CC(=O)O)NC(=O)[C@H](CCSC)NC(=O)[C@H](C)NC(=O)[C@@H](NC(=O)[C@H](CO)NC(=O)[C@H](Cc1ccc(O)cc1)NC(=O)[C@H](CC(=O)O)NC(=O)[C@H](CO)NC(=O)[C@@H](NC(=O)[C@H](Cc1ccccc1)NC(=O)[C@@H](N)[C@@H](C)O)[C@@H](C)CC)[C@@H](C)CC)C(=O)N[C@H](C(=O)N[C@@H](Cc1c[nH]cn1)C(=O)N[C@@H](CCC(N)=O)C(=O)N[C@@H](CCC(N)=O)C(=O)N[C@@H](CC(=O)O)C(=O)N[C@@H](Cc1ccccc1)C(=O)N[C@H](C(=O)N[C@@H](CC(N)=O)C(=O)N[C@@H](Cc1c[nH]c2ccccc12)C(=O)N[C@@H](CC(C)C)C(=O)N[C@@H](CC(C)C)C(=O)N[C@@H](C)C(=O)N[C@@H](CCC(N)=O)C(=O)N[C@@H](CCCCN)C(N)=O)C(C)C)[C@@H](C)CC"}}, "note": "Ends that are not written are not given here. * marks the point of attachment. C16 diacid = O=C(O)CCCCCCCCCCCCCCC(=O)*; Palmitoyl = CCCCCCCCCCCCCCCC(=O)*; Myristoyl = CCCCCCCCCCCCCC(=O)*; Lauroyl = CCCCCCCCCCCC(=O)*", "data": [{"target": "T1, human GIP receptor (human, UniProt P48546 22-466)", "T1 sequence (looked up)": "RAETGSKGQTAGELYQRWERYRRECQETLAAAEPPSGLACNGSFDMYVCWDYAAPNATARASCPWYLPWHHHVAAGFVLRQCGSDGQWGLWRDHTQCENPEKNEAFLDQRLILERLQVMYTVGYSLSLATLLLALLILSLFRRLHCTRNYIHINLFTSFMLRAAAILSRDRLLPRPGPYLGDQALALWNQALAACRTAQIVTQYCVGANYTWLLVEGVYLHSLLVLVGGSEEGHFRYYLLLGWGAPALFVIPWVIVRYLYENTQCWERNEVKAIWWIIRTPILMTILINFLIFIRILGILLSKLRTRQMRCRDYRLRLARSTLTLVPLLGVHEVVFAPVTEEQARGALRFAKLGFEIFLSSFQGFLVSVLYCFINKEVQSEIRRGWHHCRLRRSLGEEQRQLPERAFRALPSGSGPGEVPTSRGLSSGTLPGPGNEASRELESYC", "assay": "cell-based or functional assay", "units": {"cAMP antagonism": "nM", "cAMP antagonism, log": "log M"}, "values": [{"binder": "TKISDYSIAMDKIHQQDFVNWLLAQK (C16-diacid fatty acyl on Lys 6 (GIP numbering); C-terminal amide)", "note": "[AT168 [hGIP(5-30)NH2[F6K]-C16diacid/6]]", "cAMP agonism, Emax": 0, "cAMP antagonism": 96, "cAMP antagonism, log": -7}, {"binder": "B1", "cAMP agonism, Emax": 0, "cAMP antagonism": 507, "cAMP antagonism, log": -6.3}, {"binder": "B2", "cAMP agonism, Emax": 0, "cAMP antagonism": 37, "cAMP antagonism, log": -7.4}]}, {"target": "T1, human GIP receptor", "assay": "125I-hGIP competition binding, COS-7/hGIPR, 2% HSA;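 also: nonspecific binding defined as radioligand binding to untransfected cells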", "units": {"IC50": "nM", "logIC50": "log M"}, "procedure": "(§1) After incubation, the cells were washed twice in ice-cold binding buffer (+/−2% HSA) and lysed using 200 mM NaOH with 1% SDS for 30 min. Nonspecific binding was determined as the binding of radioactive ligand to untransfected cells.", "values": [{"binder": "B3", "IC50": 966, "logIC50": -6}, {"binder": "B4", "IC50": 8240, "logIC50": -5.1}, {"binder": "B5", "IC50": 6080, "logIC50": -5.2}, {"binder": "TKISDYSIAMDKIHQQDFVNWLLAQK (C16-diacid fatty acyl on Lys 6 (GIP numbering); C-terminal amide)", "note": "[AT168 [hGIP(5-30)NH2[F6K]-C16diacid/6]]", "IC50": 100, "logIC50": -7}, {"binder": "B1", "IC50": 1380, "logIC50": -5.9}, {"binder": "B2", "IC50": 166, "logIC50": -6.8}, {"binder": "B6", "IC50": 2660, "logIC50": -5.6}]}, {"target": "T1, human GIP receptor", "assay": "125I-hGIP competition binding, COS-7/hGIPR, 0.1% casein;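 also: nonspecific binding defined as radioligand binding measured on untransfected cells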", "units": {"IC50": "nM", "logIC50": "log M"}, "procedure": "as §1", "values": [{"binder": "B3", "IC50": 170, "logIC50": -6.8}, {"binder": "B4", "IC50": 1590, "logIC50": -5.8}, {"binder": "B5", "IC50": 1230, "logIC50": -5.9}, {"binder": "TKISDYSIAMDKIHQQDFVNWLLAQK (C16-diacid fatty acyl on Lys 6 (GIP numbering); C-terminal amide)", "note": "[AT168 [hGIP(5-30)NH2[F6K]-C16diacid/6]]", "IC50": 50.1, "logIC50": -7.3}, {"binder": "B1", "IC50": 631, "logIC50": -6.2}, {"binder": "B2", "IC50": 28.8, "logIC50": -7.5}, {"binder": "B6", "IC50": 369, "logIC50": -6.4}]}, {"target": "T1, human GIP receptor", "assay": "125I-hGIP competition binding, COS-7 cells expressing hGIPR;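 also: nonspecific binding taken as radioligand bound by untransfected cells, binding buffer with or without 2% HSA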", "units": {"IC50": "nM", "log IC50": "log M"}, "procedure": "as §1", "values": [{"binder": "B3", "IC50": 173, "log IC50": -6.8}, {"binder": "B4", "IC50": 361, "log IC50": -6.4}, {"binder": "B5", "IC50": 591, "log IC50": -6.2}, {"binder": "TKISDYSIAMDKIHQQDFVNWLLAQK (C16-diacid fatty acyl on Lys 6 (GIP numbering); C-terminal amide)", "note": "[AT168 [hGIP(5-30)NH2[F6K]-C16diacid/6]]", "IC50": 48, "log IC50": -7.3}, {"binder": "B1", "IC50": 628, "log IC50": -6.2}, {"binder": "B2", "IC50": 28, "log IC50": -7.5}, {"binder": "B6", "IC50": 194, "log IC50": -6.7}]}, {"target": "T1, human GIP receptor", "assay": "IC50 with 2% HSA over IC50 with 0.1% casein, 125I-hGIP competition, COS-7/hGIPR", "units": {"Fold change HSA (2%)/Casein (0.1%)": "fold"}, "procedure": "as §1", "values": [{"binder": "B3", "Fold change HSA (2%)/Casein (0.1%)": 5.7}, {"binder": "B4", "Fold change HSA (2%)/Casein (0.1%)": 5.2}, {"binder": "B5", "Fold change HSA (2%)/Casein (0.1%)": 4.9}, {"binder": "TKISDYSIAMDKIHQQDFVNWLLAQK (C16-diacid fatty acyl on Lys 6 (GIP numbering); C-terminal amide)", "note": "[AT168 [hGIP(5-30)NH2[F6K]-C16diacid/6]]", "Fold change HSA (2%)/Casein (0.1%)": 2}, {"binder": "B1", "Fold change HSA (2%)/Casein (0.1%)": 2.2}, {"binder": "B2", "Fold change HSA (2%)/Casein (0.1%)": 5.8}, {"binder": "B6", "Fold change HSA (2%)/Casein (0.1%)": 7.2}]}]}
